Test results taken from PMC2474647.

Target: GST-HP1β (UniProt P83917)
Assay: pull-down; GST-HP1β bound to glutathione beads, in nuclear extraction buffer, incubated with FLAG-TIF1βs purified from 293T cells by FLAG peptide elution; Western blot quantified with ImageGauge, normalised to GST-HP1β

UniProt P83917, sequence (P83917 whole entry): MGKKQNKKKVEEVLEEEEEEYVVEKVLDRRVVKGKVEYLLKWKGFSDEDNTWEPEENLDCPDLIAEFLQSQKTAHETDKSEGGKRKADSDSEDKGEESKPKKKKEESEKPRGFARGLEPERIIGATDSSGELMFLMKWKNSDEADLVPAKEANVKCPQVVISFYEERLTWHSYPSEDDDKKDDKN

Row | relative level pulled down by GST-HP1β (normalised to GST-HP1β) | Substance
1 | 1.63 | FLAG-TIF1β/S473A, expressed in 293T cells (natural protein)
2 | 1.39 | FLAG-TIF1β (wild type), expressed in 293T cells (natural protein)
